Test results published in publication PMC8591604, “Targeting Oncogenic Src Homology 2 Domain-Containing Phosphatase 2 (SHP2) by Inhibiting Its Protein–Protein Interactions” (Journal of Medicinal Chemistry, 2021).
pKd: −log10 of the molar value. Where two headings read alike, the source gives them in different places.

Legend:
[1] = target: N-SH2 domain of SHP2 (residues 2–111) (human) (UniProt Q06124)
[2] = target: N-SH2 domain of SHP2 (residues 2–111) (human) (UniProt Q06124); remark: listed apart in the source
[3] = target: N-SH2 domain of SHP2 (residues 2–111) (human) (UniProt Q06124); assay: fluorescence polarisation; fluorescence anisotropy, displacement: 0.10 nM CF-P9W5 (0.5 nM for P8 and OP) with […] N-SH2 titrated with unlabelled peptide; fluorescence buffer

Q: How did the pKd [1] turn out when “CF-P9, fluorescently labeled IRS-1 pY1172 analogue (nine residues) (peptide)” was run?
A: Its pKd is 7.28.

Q: “CF-P9Y0, unphosphorylated analogue of the labeled IRS-1 pY1172 peptide” was tested. Which pKd [2] did it give?
A: Its pKd is 5.18.

Q: How did the pKd [3] turn out when “P8W5, P8 analogue with W at position +5 (peptide)” was run?
A: Its pKd is 8.80.
